# Measurements taken from patent US20030022263A1 (ST JUDE CHILDREN S RESEARCH HOSPITAL, published 2003).
# Target: T1, endogenous eIF-4E of mouse fibroblasts (mouse, UniProt P63073 2-217)
# T1 construct: mature
# Experiment: eIF-4E captured on a methyl-G column from mouse fibroblast lysates, Western blot for both proteins
# Procedure: Fibroblasts from normal or AT mice were treated with (+) or without (−) insulin and total cellular and complexed eIF-4E and 4E-BP1 were examined by Western blot. […] The amount of 4E-BP1 bound to eIF-4E was examined by immunoprecipitating eIF-4E with a methyl-G column and then blotting for both proteins.
# T1 sequence (P63073 2-217): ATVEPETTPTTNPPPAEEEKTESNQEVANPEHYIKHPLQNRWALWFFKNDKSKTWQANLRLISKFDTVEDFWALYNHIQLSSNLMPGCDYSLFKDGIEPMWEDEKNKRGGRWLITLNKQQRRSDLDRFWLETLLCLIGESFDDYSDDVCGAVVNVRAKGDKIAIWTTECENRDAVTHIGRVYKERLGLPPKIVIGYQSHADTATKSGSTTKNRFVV
binder,measurement,value
"endogenous 4E-BP1 of mouse fibroblasts (other, UniProt Q60876 2-117, looked up, mature) SAGSSCSQTPSRAIPTRRVALGDGVQLPPGDYSTTPGGTLFSTTPGGTRIIYDRKFLMECRNSPVAKTPPKDLPAIPGVTSPTSDEPPMQASQSQLPSSPEDKRAGGEESQFEMDI",binding result,binds
